Measurements reported in the supplement of paper PMC10567573.

B1: PTPN9 (parent)
chain: IDFLRVVRNQQSLAVSNMGARSKG

Variants of: B1
Assay: protein stability index of a GFP-peptide fusion (GPS, HEK-293T) (PSI 1-6); higher = more stable
Settings: c terminus: a fixed tail appended
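Note: lentivirally expressed fusions sorted by FACS into six bins by GFP to DsRed ratio, PSI derived from sequencing read proportions per bin multiplied by bin number.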

Protein stability index: each site, then its substitutions
R8: Y 1.78; C 2.27; I 2.65; S 1.8; W 1.94; K 2.26; V 1.88; Q 2.32; F 1.47; M 1.46; L 2.04; H 2.32; D 3.22; G 2.37; N 2.27; T 2.13; P 2.51; E 3; A 2.54
L4: K 3.25; P 3.86; A 3.04; I 1.69; W 1.72; C 2.94; G 3.69; F 2.3; Y 1.89; D 4.58; E 4.22; R 3.06; Q 3.37; S 3.6; M 2.48; V 2.6; T 3.33; N 3.48; H 3.35
D2: Y 1.78; V 2.84; W 2.16; T 2.05
F3: E 4.29; P 4.2; I 2.34; Y 2.4; A 3.55; Q 3.89; D 4.21; M 2.75; T 4.5; V 3.78; N 4.45; G 4.02; L 2.47; W 2.17; R 3.69; S 3.88; K 3.93; C 3.89; H 4.36
S16: T 2.2; W 1.46; V 1.9; C 1.99; Q 2.78; P 2.54; H 2.15; E 2.64; K 2.59; M 1.83; R 2.78; N 2.52; Y 2.38; I 1.74; D 2.48; L 1.89; F 2.31; A 3.26; G 2.35
Q11: F 1.95; M 2.1; L 1.81; H 2.26; I 1.8; C 1.91; A 1.99; V 1.67; P 2.37; T 2.29; G 2.35; W 1.34; N 2.84; K 2.26; D 2.57; R 2.31; Y 2.12; S 2.31; E 2.35
L13: H 2.45; P 2.96; M 2.51; K 2.75; V 2.85; R 2.34; A 2.73; T 2.57; E 3.58; Y 2.57; D 3.08; I 2.31; S 2.7; F 2.34; G 3.24; C 2.14; W 2.72; Q 3.3; N 3.2
V15: M 2.61; G 2.83; R 2.31; W 2.25; A 2.82; P 2.36; N 2.86; T 2.69; F 2.18; E 2.69; D 2.52; K 2.62; Y 2.15; C 2.28; H 2.56; Q 2.79; L 2.41; S 2.49; I 1.97
V7: E 3.73; I 2.41; P 2.94; C 3.07; Q 2.97; H 3.26; G 2.96; F 1.84; A 3.7; N 3.53; Y 2.23; W 2.91; R 3.37; D 3.16; K 2.66; M 2.03; S 3.61; L 1.85; T 2.98
A14: G 2.3; T 2.64; M 2.66; K 2.13; Q 2.09; R 2.13; I 1.8; S 2.23; Y 2.04; D 2.17; L 1.76; E 1.95; V 2.22; W 2.39; H 2.48; F 2.23; C 2.01; P 2.7; N 2.4
M18: H 2.91; P 2.57; F 2; T 3.23; G 2.85; W 2.03; K 2.87; S 3.13; Y 2.04; L 2.67; D 3.05; A 3.02; R 3.35; N 3.06; C 2.51; E 3.28; V 2.32; I 2.13; Q 2.73
N17: E 3.08; F 2.12; W 2.14; Q 2.42; A 2.7; P 2.27; S 2.74; I 2.09; K 2.24; G 2.21; Y 1.93; R 2.45; C 2.1; V 2; T 2.71; D 2.63; M 1.65; H 2.9; L 2.22
R5: A 2.06; V 1.83; K 2.39; C 1.48; D 3.71; P 3.73; T 2.45; G 2.81; N 3.24; Q 3.27; E 3.47; M 2.81; F 2.88; W 2; H 3.15; Y 2.54; I 2.69; S 3; L 2.38
A20: G 2.43; H 2.38; K 2.69; E 1.92; C 2.6; D 2.57; I 1.99; F 2.1
Q10: R 2.19; L 2.2; E 2.87; Y 2.35; N 2.39; V 2.02; M 2.54; F 2.35; H 2.49; C 1.89; I 1.95; W 2.02; T 2.4; G 3.19; A 2.06; P 2.74; K 2.27; S 1.43; D 2.63
V6: N 3.35; H 2.67; T 3.23; Y 2.13; Q 2.8; C 2.42; A 3.12; P 3.31; G 3.53; F 2.26; D 3.26; K 2.8; R 2.38; L 2.5; S 3.36; W 2.74; M 1.99; E 3.36; I 1.99
S12: V 2.34; L 2.31; T 2.15; H 2.41; D 2.75; Q 2.02; I 1.99; F 2.26; C 1.89; E 2.65; P 2.46; Y 1.8; K 2.55; W 1.69; G 2.48; R 2.52; A 2.04; M 2.22; N 2.1
G19: N 2.72; W 2.66; Q 2.96; I 2.19; C 2.24; M 2.3; K 2.58; V 2.13; L 2.12; Y 2.16; F 2.94; P 2.83; D 2.35; E 2.91; R 1.97; H 2.57; S 2.08; T 2.27; A 2.47
N9: I 1.67; F 2.66; T 2.28; P 2.78; H 2.57; C 1.96; Y 1.93; L 1.61; M 1.88; K 2.58; A 1.94; V 1.89; R 2.44; G 2.3; S 2.15; Q 2.14; D 3.66; E 2.67
